Measurements taken from patent US20150376619, “APTAMERS THAT BIND CD271” (VIVONICS, INC., published 2015).

Molecular target: T1, CD271 (NGFR, p75NTR)/Fc chimera (Homo sapiens, UniProt P08138 P08138:29-250)
T1 chain: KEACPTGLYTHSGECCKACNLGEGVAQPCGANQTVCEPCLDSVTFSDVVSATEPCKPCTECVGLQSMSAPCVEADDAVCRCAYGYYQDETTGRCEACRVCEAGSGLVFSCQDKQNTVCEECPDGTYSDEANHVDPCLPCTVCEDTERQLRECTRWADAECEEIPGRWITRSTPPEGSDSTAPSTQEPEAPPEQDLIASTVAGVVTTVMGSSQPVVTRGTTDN
Experiment: size exclusion HPLC, 0.01 M PBS pH 7.4, room temperature, aptamer to protein 5:1; complex elutes at 21.2 min
Conditions: tags: human IgG1 Fc chimera, Sigma-Aldrich N8898 (lyophilized with PBS salts and BSA); chain copies: 2; label: biotin

B1: 1391-Motif (ssDNA)
DNA: TACGACTCACTATAGGGATCCAAGAAAGAAAAAGGAGAAAGGGGGGGGGGAATTCCCTTTAGTGAGGGTT
modifications: biotinylated for SPR
binding result: binds
